Experimental data reported in patent US20210181204A1 (SYNGENTA PARTICIPATIONS, published 2021).

How the values were obtained:
[1] = target: eCry3.1Ab hybrid insecticidal protein; assay: direct ELISA: eCry3.1Ab coated at 1 ug/ml, RGS-His HRP detection
[2] = target: T1, mCry3A insecticidal protein (Bacillus thuringiensis subsp. …, UniProt P0A379 48-644, limits assumed); assay: direct binding ELISA with leaf extracts expressing synNAPS-13, A405
T1 construct: also called modified Cry3A
T1 sequence: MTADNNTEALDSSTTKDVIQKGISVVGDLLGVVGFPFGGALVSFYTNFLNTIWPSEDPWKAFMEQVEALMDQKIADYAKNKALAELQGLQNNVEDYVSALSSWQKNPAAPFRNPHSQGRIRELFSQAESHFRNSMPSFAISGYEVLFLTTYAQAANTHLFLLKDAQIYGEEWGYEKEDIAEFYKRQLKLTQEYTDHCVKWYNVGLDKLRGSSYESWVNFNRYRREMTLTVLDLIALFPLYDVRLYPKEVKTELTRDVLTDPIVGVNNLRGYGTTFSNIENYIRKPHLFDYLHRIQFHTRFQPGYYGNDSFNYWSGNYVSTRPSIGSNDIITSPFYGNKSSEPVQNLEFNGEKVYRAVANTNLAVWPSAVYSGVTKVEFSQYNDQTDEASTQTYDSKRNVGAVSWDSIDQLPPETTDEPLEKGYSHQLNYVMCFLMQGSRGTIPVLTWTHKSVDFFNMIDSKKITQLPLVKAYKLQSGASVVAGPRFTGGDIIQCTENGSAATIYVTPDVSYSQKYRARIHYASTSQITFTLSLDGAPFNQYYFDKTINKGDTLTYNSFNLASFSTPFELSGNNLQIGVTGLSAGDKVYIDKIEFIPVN

[3] = target: T2, Cry1Ab insecticidal protein (Bacillus thuringiensis, UniProt P0A370 1-615); assay: as above
[4] = target: Cry1Ai insecticidal protein; assay: direct ELISA: protein coated at 500 ng/ml, 10 nM tagged synNAPS with SA-AP
[5] = target: T2, Cry1Ab insecticidal protein; assay: as above
[6] = target: Cry1Ab.1Ca insecticidal protein; assay: as above
[7] = target: T1, mCry3A insecticidal protein; assay: sandwich ELISA: synNAPS on streptavidin plate, HRP-antibody detection; mCry3A 60 ng/ml
[8] = target: T2, Cry1Ab insecticidal protein; assay: sandwich ELISA: synNAPS on streptavidin plate, HRP-antibody detection; Cry1Ab 10 ng/ml
[9] = target: T1, mCry3A insecticidal protein; assay: direct ELISA, coated protein, SA-AP, 405 nm
[10] = target: T3, Cry1Aa insecticidal protein (Bacillus thuringiensis subsp. aizawai, UniProt P0A367 12-1176); assay: direct ELISA, coated protein, SA-AP, 405 nm
[11] = target: eCry3.1Ab hybrid insecticidal protein; assay: direct ELISA, coated protein, SA-AP, 405 nm
[12] = target: T1, mCry3A insecticidal protein; assay: direct ELISA: protein coated at 500 ng/ml, 10 nM tagged synNAPS with SA-AP
[13] = target: Cry1Ai insecticidal protein; assay: direct ELISA, coated protein, SA-AP, 405 nm
[14] = target: T2, Cry1Ab insecticidal protein; assay: direct ELISA, coated protein, SA-AP, 405 nm
[15] = target: Cry1Ab.1Ca insecticidal protein; assay: direct ELISA, coated protein, SA-AP, 405 nm
[16] = target: T3, Cry1Aa insecticidal protein; assay: direct ELISA: protein coated at 500 ng/ml, 10 nM tagged synNAPS with SA-AP
[17] = target: eCry3.1Ab hybrid insecticidal protein; assay: as above
[18] = target: T1, mCry3A insecticidal protein; assay: affinity capture on synNAPS-13 streptavidin beads from corn leaf extract, eluate measured by ELISA

B1: synNAPS-13 ligand (designed binder)
chain: MVKVKFKRWGEEKEVDTSKILHVLRVGKYVRFSYDDNGKLGAGYVTEKDAPKELLDMLARAEREKK
In the case of B1, the “Binding (OD 450 nm)” value [1] is reported as 4.1 OD 450 nm, the binding result [2] is reported as “no binding” and the binding result [3] is reported as “no binding”.

B2: synNAPS-2tag ligand (designed binder)
chain: MRGSHHHHHHGSVKVKFKYKGEEKEVDTSKIVWIGRFGKSVYFRYDDNGKTGAGRVYEKDAPKELLDMLARAEREKKLGSGLNDIFEAQKIEWH
modifications: in vivo biotinylation (E. coli BirA strain) on the C-terminal avidin-tag
notes: also called tagged synNAPS 2
With B2 the “Binding to Insecticidal Protein (read at 405 nm)” value (“Binding to Insecticidal Protein” for short) [4] was 2.5 absorbance 405 nm, the “Binding to Insecticidal Protein” value [5] was 1.8 absorbance 405 nm and the “Binding to Insecticidal Protein” value [6] was 1 absorbance 405 nm. For the same binder, the “Absorbance at protein concentration (ng/ml)” value (“Absorbance” below) [7] was 0 absorbance 450 nm, the “Absorbance” value [8] was 4 absorbance 450 nm and the binding result [9] was “no binding (tested: 10 nM)”. B2: no binding (tested: 10 nM) [10]; no binding (tested: 10 nM) [11].

B3: synNAPS-9tag ligand (designed binder)
chain: MRGSHHHHHHGSVKVKFAQGGEEKEVDTSKIYRVPRHGKIVFFMYDDNGKGGFGHVTEKDAPKELLDMLARAEREKKLGSGLNDIFEAQKIEWH
modifications: in vivo biotinylation (E. coli BirA strain) on the C-terminal avidin-tag
notes: also called NsynNAPS9; tagged synNAPS 9
For B3, the “Binding to Insecticidal Protein” value [12] was 0.7 absorbance 405 nm, the “Absorbance” value [7] was 2 absorbance 450 nm and the “Absorbance” value [8] was 0 absorbance 450 nm. B3: no binding (tested: 10 nM) [13]; no binding (tested: 10 nM) [14]; no binding (tested: 10 nM) [10]. B3: no binding (tested: 10 nM) [15]; no binding (tested: 10 nM) [11].

B4: synNAPS-11tag ligand (designed binder)
chain: MRGSHHHHHHGSVKVKFGLGGEEKEVDTSKIRRVLRLGKLVSFTYDDNGKIGLGDVHEKDAPKELLDMLARAEREKKLGSGLNDIFEAQKIEWH
modifications: in vivo biotinylation (E. coli BirA strain) on the C-terminal avidin-tag
notes: also called tagged synNAPS 11
B4 was tested, and the “Binding to Insecticidal Protein” value [4] was 0.7 absorbance 405 nm, the “Binding to Insecticidal Protein” value [12] was 2.9 absorbance 405 nm and the “Binding to Insecticidal Protein” value [16] was 0.6 absorbance 405 nm. The “Binding to Insecticidal Protein” value [17] was 1.5 absorbance 405 nm, the binding result [14] was “no binding (tested: 10 nM)” and the binding result [15] was “no binding (tested: 10 nM)”.

B5: synNAPS-13tag ligand (designed binder)
chain: MRGSHHHHHHGSVKVKFKRWGEEKEVDTSKILHVLRVGKYVRFSYDDNGKLGAGYVTEKDAPKELLDMLARAEREKKLGSGLNDIFEAQKIEWH
modifications: in vivo biotinylation (E. coli BirA strain) on the C-terminal avidin-tag
notes: also called tagged synNAPS 13
In the case of B5, the “Quantity of Protein (ng/ml) eluted from synNAPS-13 beads” value [18] is reported as 0 ng/mL, the “Absorbance” value [7] is reported as 0 absorbance 450 nm and the “Absorbance” value [8] is reported as 0 absorbance 450 nm. B5: no binding (tested: 10 nM) [13]; no binding (tested: 10 nM) [9]; no binding (tested: 10 nM) [14]. B5: no binding (tested: 10 nM) [10]; no binding (tested: 10 nM) [15].
